This note sets out measurements from article PMC10258192.

The test deals with T1, mEGFP-SRSF2, Q01130.
T1 chain: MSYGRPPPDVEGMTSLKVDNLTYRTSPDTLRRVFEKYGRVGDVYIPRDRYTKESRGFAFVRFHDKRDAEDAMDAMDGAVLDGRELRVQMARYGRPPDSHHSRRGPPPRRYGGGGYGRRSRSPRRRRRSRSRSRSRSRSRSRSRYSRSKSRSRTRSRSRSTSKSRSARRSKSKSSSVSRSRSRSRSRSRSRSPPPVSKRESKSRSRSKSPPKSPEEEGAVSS
As to the kind of experiment: SEC-MALS; purified protein, static light scattering after the molecular sieve; before addition of PEG8000. Conditions: remark: other sources report otherwise. A general note: SEC sorts molecules by how far they enter the pores of the column.

B1: mEGFP-SRSF2, Q01130 1-221 (natural protein)
chain: T1 chain
One may read the stoichiometry N as the number of molecules, sites or subunits per partner or assembly. The molecule B1 returned a stoichiometry N of 5000.
